Assay results taken from patent publication US20230052256A1 (DIZAL JIANGSU PHARMACEUTICAL, published 2023).
One block for each binder: values may come before it.

Key:
[1] = target: T1, human FGFR2b, endogenous, on KATOIII gastric cancer cells (human, UniProt P21802-3 22-822); experiment: cell-based or functional assay
[2] = target: T1, human FGFR2b, endogenous, on KATOIII …; experiment: flow cytometry on KATOIII cells
Protocol: To confirm that the selected antibodies can bind to the endogenous forms of FGFR2b on the cell membrane, flow cytometry was performed using FGFR2b expressing KATOIII cells. All antibodies were prepared in PBS buffer with 10% donkey serum (Jackson Immunogen #017-000-121). 500,000 KATOIII cells were incubated with […] of different concentration of anti-FGFR2b antibody for 60 min at 4° C. Cells were washed twice and incubated in 100 μl of 10 μg/ml of 2nd IgG-Alexa488 antibody (Jackson Immunogen #709546149) for 30 minutes at 4° C. in the dark. Cells were washed three times and resuspended with wash buffer and analyzed on a flow cytometer.

[3] = target: T2, human FGFR2b ECD fused with murine Fc (human); experiment: ELISA, plate coated with human FGFR2b-Fc, anti-human IgG HRP
T2 construct: The ELISA text says only 'recombinant human FGFR2b-Fc'; also called recombinant human FGFR2b-Fc; hu FGFR2b
T2 chain: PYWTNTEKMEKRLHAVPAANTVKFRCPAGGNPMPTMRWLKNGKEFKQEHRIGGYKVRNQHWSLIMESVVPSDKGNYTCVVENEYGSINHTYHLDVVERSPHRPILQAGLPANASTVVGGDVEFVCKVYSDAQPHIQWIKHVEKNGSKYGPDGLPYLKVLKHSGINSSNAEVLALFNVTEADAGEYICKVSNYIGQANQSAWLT
Protocol: (§1) The cross-species binding of Ab 26c to recombinant cyno, rat/mouse, and human FGFR2b-Fc fusion proteins was conducted with ELISA. In brief, 96-well ELISA plate were coated with about 100 μl/well 0.1 μg/ml recombinant human FGFR2b-Fc, recombinant rat/mouse FGFR2b-Fc, or recombinant cynomolgus FGFR2b-Fc protein in PBS overnight. Then the plate was blocked with 2% BSA in PBS with 0.05% Tween20 and incubation with antibody samples for 60 min at room temperature, and then washed twice in 1×TBST (Cell Signaling Technology, #9997) and followed by incubation with anti-human IgG HRP conjugate for 60 min at a room temperature. HRP activity was detected with tetra-methylbenzidine substrate (Cell Signaling Technology, #7004) and the reaction was stopped with stop solution (Cell Signaling Technology, #7002). The plate was read at 450 nm. […] Ab 26c has the highest binding affinity to rat/mouse FGFR2b, followed by human FGFR2b, and then cynomolgus FGFR2b.

[4] = target: T3, recombinant human FGFR1b-Fc (R&D Systems) (human, UniProt P11362-19 22-376, limits assumed); experiment: SPR (Biacore T200), hFGFR1b-Fc amine-coupled to CM5 chip, antibody injected
T3 construct: Bought from R&D Systems; also called hFGFR1b-Fc; not shown: human Fc of the bought fusion protein
T3 sequence (looked up): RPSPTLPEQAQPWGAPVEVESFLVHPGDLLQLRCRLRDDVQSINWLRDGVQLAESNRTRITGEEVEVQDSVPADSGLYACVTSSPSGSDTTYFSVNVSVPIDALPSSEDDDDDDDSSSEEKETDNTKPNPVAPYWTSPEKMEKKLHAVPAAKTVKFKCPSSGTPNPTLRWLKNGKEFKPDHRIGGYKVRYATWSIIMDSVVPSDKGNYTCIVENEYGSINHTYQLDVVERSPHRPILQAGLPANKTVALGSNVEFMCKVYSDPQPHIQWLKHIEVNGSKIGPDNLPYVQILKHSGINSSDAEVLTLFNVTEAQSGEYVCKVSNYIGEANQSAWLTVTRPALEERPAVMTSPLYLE
Protocol: (§2) The binding of antibodies to human FGFR2b or human FGFR1b antigen was determined by surface plasmon resonance (Biacore). Briefly, CM5 sensor chip (GE Healthcare Life Sciences) was firstly activated by a 4 min injection of 1:1 freshly mixture of 50 mM N-hydroxysuccinamide (NHS): 200 mM EDC […]. Then hFGFR2b-Fc or hFGFR1b-Fc was immobilized to activated CM5 sensor chip using Amine Coupling Kit (GE Healthcare Life Sciences) and 1M ethanolamine as the blocking reagent. About 20-30 response units (RU, 1 RU represents the binding of 1 pg of protein per square mm) of antigen protein were captured.
(§3) Antibodies were diluted in HBS-EP+ running buffer (GE Healthcare Life Sciences) (10 mM HEPES, 150 mM NaCl, 3 mM EDTA, 0.05% surfactant P20, pH 7.4) and injected at serial concentration (0, 6.25, 12.5, 25, 50, 100, 150, 200 nM) and surface regeneration of the CM5 sensor chip were included in each running cycle. The association constant, dissociation constant were calculated with Biacore T200 evaluation software (version 1.0). […] In addition, Ab 26c is distinguished from the antibody FPA144 in terms of FGFR1b binding.

[5] = target: T4, human FGFR2b (beta)-Fc, human Fc fusion (human); experiment: SPR (Biacore T200), hFGFR2b-Fc amine-coupled to CM5 chip, antibody injected
T4 construct: range 65-267; Made in 293F cells; The Biacore and Ab 26 ELISA text says only 'hFGFR2b-Fc' or 'FGFR2b'; also called hFGFR2b-Fc; human FGFR2b-Fc
Protocol: as §2, §3

[6] = target: T5, rat/mouse FGFR2b ECD fused with murine Fc (rat); experiment: ELISA, plate coated with rat/mouse FGFR2b-Fc, anti-human IgG HRP
T5 construct: also called recombinant rat/mouse FGFR2b-Fc; rat FGFR2b
Protocol: as §1

[7] = target: T6, cynomolgus FGFR2b-Fc (ECD fused to murine Fc) (cynomolgus monkey); experiment: ELISA, plate coated with cynomolgus FGFR2b-Fc, anti-human IgG HRP
T6 construct: also called recombinant cynomolgus FGFR2b-Fc; cyno FGFR2b
Protocol: as §1

[8] = target: T3, recombinant human FGFR1b-Fc (R&D …); experiment: SPR (Biacore T200), hFGFR1b-Fc amine-coupled to a CM5 chip, antibody injected at 0-200 nM
Protocol: as §2, §3

[9] = target: T4, human FGFR2b (beta)-Fc, human Fc fusion; experiment: SPR (Biacore T200), hFGFR2b-Fc amine-coupled to a CM5 chip, antibody injected at 0-200 nM
Protocol: as §2, §3

[10] = target: T7, recombinant human FGFR4-Fc (R&D Systems) (human, UniProt P22455 22-369); experiment: ELISA on HuFGFR4
T7 construct: Bought from R&D Systems; not shown: human Fc of the bought fusion protein
T7 sequence (looked up): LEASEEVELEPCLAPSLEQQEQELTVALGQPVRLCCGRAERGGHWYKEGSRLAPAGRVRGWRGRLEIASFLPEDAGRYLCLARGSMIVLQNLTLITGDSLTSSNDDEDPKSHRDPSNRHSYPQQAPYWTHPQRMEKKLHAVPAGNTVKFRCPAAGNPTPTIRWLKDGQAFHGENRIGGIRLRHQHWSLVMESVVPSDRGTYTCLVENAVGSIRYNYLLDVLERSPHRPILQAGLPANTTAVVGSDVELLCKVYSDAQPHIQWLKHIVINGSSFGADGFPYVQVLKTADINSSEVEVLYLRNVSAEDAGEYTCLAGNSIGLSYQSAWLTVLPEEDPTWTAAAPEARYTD

[11] = target: T3, recombinant human FGFR1b-Fc (R&D …); experiment: ELISA on HuFGFR1b
[12] = target: T4, human FGFR2b (beta)-Fc, human Fc fusion; experiment: ELISA on HuFGFR2b
[13] = target: T8, recombinant human FGFR3b-Fc (R&D Systems) (human, UniProt P22607-2 23-377); experiment: ELISA on HuFGFR3b
T8 construct: Bought from R&D Systems; not shown: human Fc of the bought fusion protein
T8 sequence (looked up): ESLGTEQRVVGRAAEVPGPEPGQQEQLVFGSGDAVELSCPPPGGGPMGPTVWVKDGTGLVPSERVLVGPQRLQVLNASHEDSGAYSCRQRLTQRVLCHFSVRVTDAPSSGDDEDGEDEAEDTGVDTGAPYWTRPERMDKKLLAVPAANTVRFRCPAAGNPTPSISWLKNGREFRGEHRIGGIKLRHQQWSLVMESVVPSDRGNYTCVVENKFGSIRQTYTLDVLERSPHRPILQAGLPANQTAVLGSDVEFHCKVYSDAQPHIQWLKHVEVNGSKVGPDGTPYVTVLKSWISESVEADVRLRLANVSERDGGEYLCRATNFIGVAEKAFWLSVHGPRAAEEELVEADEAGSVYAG

T1 sequence (P21802 other isoform, or with tags, fused parts or gaps): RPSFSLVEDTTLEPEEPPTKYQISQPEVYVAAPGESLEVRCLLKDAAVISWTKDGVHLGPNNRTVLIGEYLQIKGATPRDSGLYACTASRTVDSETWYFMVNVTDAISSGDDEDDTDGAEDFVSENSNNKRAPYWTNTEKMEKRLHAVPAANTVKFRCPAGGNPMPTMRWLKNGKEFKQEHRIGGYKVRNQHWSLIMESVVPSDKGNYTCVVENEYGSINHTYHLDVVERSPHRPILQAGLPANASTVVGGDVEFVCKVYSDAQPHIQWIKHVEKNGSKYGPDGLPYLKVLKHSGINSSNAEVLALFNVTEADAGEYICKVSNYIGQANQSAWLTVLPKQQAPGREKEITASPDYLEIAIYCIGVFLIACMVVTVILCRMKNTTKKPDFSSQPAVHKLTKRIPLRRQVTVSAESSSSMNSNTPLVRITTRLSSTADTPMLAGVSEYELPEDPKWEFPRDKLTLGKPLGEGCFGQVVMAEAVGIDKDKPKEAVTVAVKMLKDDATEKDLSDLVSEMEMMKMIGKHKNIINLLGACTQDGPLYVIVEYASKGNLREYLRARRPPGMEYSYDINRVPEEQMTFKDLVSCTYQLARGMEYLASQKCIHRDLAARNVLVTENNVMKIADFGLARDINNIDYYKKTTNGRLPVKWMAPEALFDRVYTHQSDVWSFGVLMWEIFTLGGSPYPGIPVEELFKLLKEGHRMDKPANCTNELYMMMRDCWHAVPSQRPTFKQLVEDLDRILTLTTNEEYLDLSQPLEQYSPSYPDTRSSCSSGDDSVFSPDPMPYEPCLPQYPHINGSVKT

- ADCC EC50, KATOIII target cells with human NK effector cells (E/T 8:1) [1]: 0.034 µg/mL
- EC50 [2]: ~3000 pM
- EC50 (read off the curve) [3]: ~200 pM
- Kd [4]: 3210 pM
- Kd [5]: 1680 pM
- EC50 (read off the curve) [6]: ~200 pM
- EC50 (read off the curve) [7]: ~600 pM
- koff [8]: 0.000552 s⁻¹
- kon [8]: 172000 M⁻¹ s⁻¹
- koff [9]: 0.00017 s⁻¹
- kon [9]: 101000 M⁻¹ s⁻¹
B1: Ab 26c (chimeric antibody based on Ab 26) (antibody, V domains shown)
VH: DVHLQESGPGLVKPSQSLSLTCSVTGYSITSGYYWNWIRQFPGNKLEWMGYITYDGSNNYNPSLKNRLSITRDTSKNQFFLQLSSLTTEDTATYFCARVYYYGSGNFDVWGTGTTVTVSS
VL: SIVMTQTPKILLVSAGDRVTITCKASQSVSNDVAWYQQKPGQSPKLLIYYASNRYTGVPDRFTGSGYGTDFTFTISTVQAEDLAVYFCHQDHTSPFTFGSGTKLEIK
notes: Mouse VH and VL fused to a human heavy chain constant region and a human light chain constant region; also called chimeric Ab26c

- EC50 (read off the curve) [11]: ~100 pM
- EC50 (read off the curve) [12]: ~80 pM
B2: Ab 26 (mouse monoclonal antibody) (antibody, V domains shown)
VH: B1 VH
VL: B1 VL
notes: Mouse hybridoma antibody; also called mouse Ab 26
- binding result [10]: no binding (tested: about 10^-7.3 M (about 5e-8 M))
- binding result [13]: no binding (tested: about 10^-7.3 M (about 5e-8 M))
